Patent US20180313836A1

Molecular target: Nrp1 immobilized on the biolayer interferometry biosensor (Homo sapiens (Human)) (UniProt O14786)
Experiment: biolayer interferometry, Nrp1 immobilized on the biosensor

Kd | Substance
29.8 nM | human glycyl-tRNA synthetase L129P (L129P-GlyRS^CMT2D) (from UniProt P41250 55-739) (enzyme)
209 nM | human glycyl-tRNA synthetase P234KY (P234KY-GlyRS^CMT2D) (from UniProt P41250 37-739) (enzyme)
